Source: the supplement of paper PMC10567573

B1: SNAP91 (parent)
chain: FAAPSPATTASPAKVDSSGVIDLF

Variants of: B1
Assay: protein stability index of a GFP-peptide fusion (GPS, HEK-293T) (PSI 1-6); higher = more stable
Settings: c terminus: a fixed tail appended
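Note: lentivirally expressed fusions sorted by FACS into six bins by GFP to DsRed ratio, PSI derived from sequencing read proportions per bin multiplied by bin number.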

Row | Variant | protein stability index
1 | IAAPSPATTASPAKVDSSGVIDLF [F1I] | 3.47
2 | DAAPSPATTASPAKVDSSGVIDLF [F1D] | 4.3
3 | NAAPSPATTASPAKVDSSGVIDLF [F1N] | 3.79
4 | VAAPSPATTASPAKVDSSGVIDLF [F1V] | 3.9
5 | MAAPSPATTASPAKVDSSGVIDLF [F1M] | 3.76
6 | FAAPSPATTASPAKVDKSGVIDLF [S17K] | 2.29
7 | FAAPSPATTASPAKVDTSGVIDLF [S17T] | 2.43
8 | FAAPSPATTASPAKVDMSGVIDLF [S17M] | 2.16
9 | FAAPSPATTKSPAKVDSSGVIDLF [A10K] | 2.23
10 | FAHPSPATTASPAKVDSSGVIDLF [A3H] | 2.23
11 | FACPSPATTASPAKVDSSGVIDLF [A3C] | 1.99
12 | FASPSPATTASPAKVDSSGVIDLF [A3S] | 2.61
13 | FAYPSPATTASPAKVDSSGVIDLF [A3Y] | 1.79
14 | FAQPSPATTASPAKVDSSGVIDLF [A3Q] | 2.31
15 | FAAPYPATTASPAKVDSSGVIDLF [S5Y] | 1.96
16 | FAAPIPATTASPAKVDSSGVIDLF [S5I] | 1.95
17 | FAAPEPATTASPAKVDSSGVIDLF [S5E] | 3.18
18 | FAAPLPATTASPAKVDSSGVIDLF [S5L] | 2.81
19 | FAAPSPATTASPAKCDSSGVIDLF [V15C] | 1.97
20 | FAAPSPATTASPAKPDSSGVIDLF [V15P] | 2.65
21 | FAAPSPATTASPAKIDSSGVIDLF [V15I] | 2.24
22 | FAAPSPATTASPAKFDSSGVIDLF [V15F] | 1.97
23 | FAAPSPATTASPATVDSSGVIDLF [K14T] | 2.38
24 | FAAPSPATTASPAWVDSSGVIDLF [K14W] | 1.58

Row | Variant | protein stability index
25 | FAAPSPATTASPAMVDSSGVIDLF [K14M] | 2.3
26 | FAAPSPATTASPAAVDSSGVIDLF [K14A] | 2.94
27 | FAAPSPATTASPACVDSSGVIDLF [K14C] | 2.41
28 | FAAPSPATTARPAKVDSSGVIDLF [S11R] | 2.45
29 | FAAPSPATTAFPAKVDSSGVIDLF [S11F] | 1.96
30 | FAAPSPATTAYPAKVDSSGVIDLF [S11Y] | 2.35
31 | FAAPSPATTAWPAKVDSSGVIDLF [S11W] | 1.33
32 | FDAPSPATTASPAKVDSSGVIDLF [A2D] | 3.57
33 | FTAPSPATTASPAKVDSSGVIDLF [A2T] | 3.36
34 | FNAPSPATTASPAKVDSSGVIDLF [A2N] | 3.45
35 | FAAPSPATTASPAKVDSSGVIDIF [L23I] | 2.51
36 | FAAPSPATTASPAKVDSSGVIDSF [L23S] | 4.11
37 | FAAPSPATTASPAKVDSSGVIDGF [L23G] | 3.51
38 | FAAPSPATTASPAKVDSSGVIDCF [L23C] | 2.79
39 | FAAPSPATTASPAKVDSSGVIDEF [L23E] | 4.4
40 | FAAPSPATTASPAKVDSSNVIDLF [G19N] | 2.59
41 | FAAPSPATTASPAKVDSSTVIDLF [G19T] | 2.57
42 | FAAPSPATTASPSKVDSSGVIDLF [A13S] | 2.25
43 | FAAPSPATTASPWKVDSSGVIDLF [A13W] | 2.12
44 | FAAPSPATTASPRKVDSSGVIDLF [A13R] | 2.34
45 | FAAPSPATTASPGKVDSSGVIDLF [A13G] | 1.98
46 | FAAPSPATTASPAKVDSSGDIDLF [V20D] | 3.22
47 | FAAPSPATTASPAKVDSSGKIDLF [V20K] | 2.78
48 | FAAPSPATTASPAKVDSSGRIDLF [V20R] | 2.63

Row | Variant | protein stability index
49 | FAAPSPATTASPAKVDSSGCIDLF [V20C] | 2.08
50 | FAAPSPATTASPAKVDSSGEIDLF [V20E] | 3.42
51 | FAAPSPATTASPAKVDSSGLIDLF [V20L] | 2.57
52 | FAAPSPATTASPAKVDSSGVIDLE [F24E] | 4.51
53 | FAAPSPATTASPAKVDSSGVIDLP [F24P] | 4.31
54 | FAAPSPATTASPAKVDSSGVIDLR [F24R] | 3.56
55 | FAAPSPATTASPAKVDSSGVIDLD [F24D] | 4.54
56 | FAAPSPATTASPAKVDSSGVYDLF [I21Y] | 2.11
57 | FAAPSPATTASPAKVDSSGVEDLF [I21E] | 3.96
58 | FAAPSPATTASPAKVDSSGVTDLF [I21T] | 3.07
59 | FAAPSPATTASPAKVDSSGVCDLF [I21C] | 2.63
60 | FAAPSPATTASPAKVDSSGVADLF [I21A] | 2.49
61 | FAAPSPATTASPAKVDSSGVPDLF [I21P] | 2.8
62 | FAAPSPATTASPAKVDSSGVLDLF [I21L] | 2.65
63 | FAAVSPATTASPAKVDSSGVIDLF [P4V] | 2.13
64 | FAAYSPATTASPAKVDSSGVIDLF [P4Y] | 1.38
65 | FAAGSPATTASPAKVDSSGVIDLF [P4G] | 1.95
66 | FAAPSRATTASPAKVDSSGVIDLF [P6R] | 1.95
67 | FAAPSFATTASPAKVDSSGVIDLF [P6F] | 2.02
68 | FAAPSSATTASPAKVDSSGVIDLF [P6S] | 2.65
69 | FAAPSKATTASPAKVDSSGVIDLF [P6K] | 2.16
70 | FAAPSPTTTASPAKVDSSGVIDLF [A7T] | 2.11
71 | FAAPSPNTTASPAKVDSSGVIDLF [A7N] | 2.46
72 | FAAPSPITTASPAKVDSSGVIDLF [A7I] | 2.1

Row | Variant | protein stability index
73 | FAAPSPGTTASPAKVDSSGVIDLF [A7G] | 2.85
74 | FAAPSPATTASQAKVDSSGVIDLF [P12Q] | 2.6
75 | FAAPSPATTASCAKVDSSGVIDLF [P12C] | 1.85
76 | FAAPSPATTASEAKVDSSGVIDLF [P12E] | 2.97
77 | FAAPSPATTASKAKVDSSGVIDLF [P12K] | 1.96
78 | FAAPSPATTASVAKVDSSGVIDLF [P12V] | 2.09
79 | FAAPSPATTASPAKVCSSGVIDLF [D16C] | 1.54
80 | FAAPSPATTASPAKVESSGVIDLF [D16E] | 2.17
81 | FAAPSPATTASPAKVDSSGVILLF [D22L] | 2.57
82 | FAAPSPATTASPAKVDSSGVIGLF [D22G] | 1.75
83 | FAAPSPATTASPAKVDSSGVITLF [D22T] | 1.73
84 | FAAPSPATTASPAKVDSSGVIVLF [D22V] | 1.75
85 | FAAPSPAVTASPAKVDSSGVIDLF [T8V] | 2.85
86 | FAAPSPALTASPAKVDSSGVIDLF [T8L] | 2.27
87 | FAAPSPAWTASPAKVDSSGVIDLF [T8W] | 2.33
88 | FAAPSPAMTASPAKVDSSGVIDLF [T8M] | 2.7
89 | FAAPSPATWASPAKVDSSGVIDLF [T9W] | 3.89
90 | FAAPSPATDASPAKVDSSGVIDLF [T9D] | 3.22
91 | FAAPSPATRASPAKVDSSGVIDLF [T9R] | 2.42
92 | FAAPSPATSASPAKVDSSGVIDLF [T9S] | 2.77
93 | FAAPSPATKASPAKVDSSGVIDLF [T9K] | 2.91
94 | FAAPSPATAASPAKVDSSGVIDLF [T9A] | 3.02
